The values below come from the domain aggregation screens of Martell et al. (2025).
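Further: 20 min heating vs room temperature control held 20 min.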

The nature of this data set: soluble fraction after stress (log2 fold change); higher = more stays soluble; pooled small domains, quantitative proteomics. Particulars: stress: 75 degC.
For the sequence “HMKVDRLISIVLVLLDKNRISAQELADMFEVSLRTIYRDIDAIELAGIPIRSTSGVGGGFEIMPNY”, the “soluble fraction (log2)” value was -1.11.
As for “HMKVKGVYQLDNGYWGYRFTMLVNGKTVSQRRVKDESGNPFKTEKKAEKARLVAMAEEQTKANK”, the figure is -2.22; as for “HMKVMTNAELGRIIKEARIARRMTQSEVVGDFITRNMLSQIENGNAAPSMRTLQYLMDVLDIHINIE”, -3.02.
With “HMKVNIGDQVYNQMKDQIMSGVWVPGEKIPSENQLMEVFGVSRGTVRQAIQKLSAVGLLETRRGEGSYVGQ”, the “soluble fraction (log2)” value was -0.136.
To “HMKVQLGMNTREVRGIMGKPFSEDTFVEGEKRVDVLHYKEAVRVKTQGFILTTSLRFENDSLTAI” belongs -1.62; to “HMKVRVFIERSNDGYSAYMPDDNNLPFGLTGDGKTAQEAMQDFLLARDEMKEFFIEEGKEFPEVEFDFS”, -0.828.
To “HMKVSAEEQNILDALQAAGGYLPFHDKSNPEEIYEAFGISKKTFKMIIGSLYKQQKINLTQTGIQLII” belongs 0.303; to “HMKVSDPEAIKLIEQAQVKVIPFLDISEAADIQIALEELKNSEGTGQTDSAKVRLRNLLSPFSYL”, 0.577.
To “HMKVSFEIEINGVTKSINSINEAKEAISELQDIMDNSTFGSEEFKNAATQIDKLQNKLVEALDK” belongs 0.93; to “HMKVSVDLSMFEDDQTADRNAAVAWVVDELGAGGVDRTILMQLQSTGWSAEQSRAILDLASAGR”, -0.311.
Take “HMKVTGSVQKKKGYYYIVVRLPTKNGTQYEQKQKWFNTKLKATPRNKTAAQVILAEKLTEYGGIV”: the “soluble fraction (log2)” value is -3.04.
As for “HMKVWYAGINAQRVGPMTLGAMEQQIRYGRVLFSTLIWKSPMPQWVPAGDVPELRRLLDEHMLNQMP”, the figure is -0.841; as for “HMKYFDRDLINYIQKTLAGKKIDFHEKIVPLIIELAGSDIRRVDEIIDMAEYSGKGMHVSEEMIRELAGDV”, -0.715; as for “HMKYKTKRDMILALMKKEILSGELKPRTRLLISEVASRYEVSEIPVREAFQVLIQEDLVRSTGAGFEVT”, -2.36.
To “HMKYPVYLQLADLIERKINKNEYPLGSKIPSERELIDAFGISRMTVRKAIEVLIEKGLLTRQHGKGTYVSQ” belongs -2.26.
As for “HMKYSNDFDKVSYSLGLSIASNLISSGVKTLNAEAFNDGLATVFEGRMPEINPDEANKILQNFFEGLQKE”, the figure is -0.278; as for “HMKYSQAMIAQIIKHFHLPNNTVVTGEDVDAILLRSVDGGDGIYGGDVVSIWKYYKKQNDIQEIVT”, -0.764; as for “HMLAEEDRRRAERPGLDGNAVMVHLGIGPGRHVGEALAFLLEVRRSEGDLAVAELKSRIDAWWADR”, -2.17.
As to “HMLAERKERDKAELKELILDAAKKILLKNGQEGLSIRKIATTVEYSPATIYLYFKDKDEILHELMEMG”, the “soluble fraction (log2)” value worked out at 0.123.
As for “HMLAHSEFGARLRETRKRLGLSQSELGGDRYSGSYISHLESGRRAASAEVIEFLAGRLGVEVEELGM”, the “soluble fraction (log2)” value was -0.406.
Regarding “HMLAIELDDKPGSLLRALEIFAKRNLNIEYMYAFTEKRGDKAVMIFKFSDIETAKKSLLEEGFN”, the “soluble fraction (log2)” value is -2.11.
To “HMLAKNDSGLNNHTFNAIRDALLEALADGPAEAKKLTENISFPSDKIITVIRFLADHDDRFSLEDGILSLT” belongs -0.738.
Regarding “HMLAKYEIIKQDIIQMIEEKKFKPGDKIYSEGELKKIYNVSSTTVVRALQDLVLSGYLIRKQGEGTYVRK”, the “soluble fraction (log2)” value was -3.2.
As for “HMLASDYEEELSVLIKMSHKIAAGDDSLMDDFNDRVTMFESSYPINKATKDLTPVLERVNKFQT”, the figure is -0.908; as for “HMLDDDAGMIQAILRKAPGHYLPLHDKSDPASIQAQLGISKAQFKRAVGTLMKQGLIRQVKGDGLYLTQ”, -0.271.
To “HMLDDESLHFFYKKDGWEYWMKTTTENNYPIQLRKKIGDEKVQEYWNGDKEKKKIGASYFGV” belongs -0.465.
As for “HMLDFLVSKYESELLADLLWSLGVVAVEEREATGDLVTLRTSLGDDHSFTRELVQEKFPDVIVSTAL”, the figure is -1.74; as for “HMLDIVVGSTGYALGEITDHSGTVRVNGDTWTARLVDAAGPVEDGDRVEVYAVEGTTLLVYPS”, -0.619.
Take “HMLDKEDNANAGKTLLERELSRAHLSDVEHRELAQRLHLASEQELYIKIGSGDLSIIQALNRAKEFKDT”: the “soluble fraction (log2)” value was -0.0269.
Regarding “HMLDKRSHAKKVLDAIEAVILGRATNDQLAYTINGRSLQKTPLPDLLRLRSQYQAEYQRELRAERIRKG”, the “soluble fraction (log2)” value was -0.697.
To “HMLDLPVKTINGKQYYYYTVKKGDTVYSLITRFGITRSDLVESNPAAADVLKTGDTLYFAVDKFG” belongs -1.19; to “HMLDLYYDSEDKLLIDMGTGEVIRSFADDKRSLVFDAQAKILFDEDSGDIVYSSYFDKLITDKLASKS”, -0.396; to “HMLDPIQEGKKMLNSRLSGFGITPNTRLMNKLLAAYNISSREEFYGRIGAGIEDLSTLREVLLKGT”, -0.973.
To “HMLDQSYYETANEIISRYPLEEKSLIPIIQDIQATYRYLPPDLLDYVAKKIGITETKAYSVASFYENFSF” belongs -0.721; to “HMLDRNKLNELDAYIESFEDKPSHLIMILHRAQGLFGYLPKELQIYVAEKTGVPAAKVYGVVTFYSFFTMK”, -3.42.
On to “HMLEDDTVNTAEGIKIGDSFAAVTKAYGTDYVAAGNTYAYSKDKMTLTFVMNNDKVSTISYSLLTS”, for which the “soluble fraction (log2)” value was 0.136.
As for “HMLEDYFKEEEYTEVLKIPKEYIKGFQYYLIEDAEFVNALRAKNKTMTLFLAKKLASDYIEIIRREQ”, the figure is -2.39; as for “HMLEIGRYNTLTVLRKVDFGYYLDGLDYGDILMPAKYAATELEAGDEVDVFIYLDSSEKLIATTETPIAQ”, -4.06; as for “HMLEIQENFQNILKRMELSLSPLERRVLALYLSGYERSEIPEKTGIPLKTFDNALHRVRNKMK”, -2.36.
As for “HMLEKDIGKAITILRKSYQLSISAFSMRTGYSRVHISEVESGKRKATDELISVIRNVFHLDSNWPF”, the “soluble fraction (log2)” value is -1.52.
To “HMLELDRTNLLGVFGSKSNPYALIMLSNGEMLKLSIGDQFLGWRVYAIDQTTVHVQNGKNQEILRIP” belongs -1.36.
Consider “HMLELLSMEDIQRTRVGDLIATVRQVDRQHALVLDRDPETGKPAVRGIFSLSQISLRLGLNI”, for which the “soluble fraction (log2)” value is -2.17.
As for “HMLEPGIAVLKTLMSQYRLGVADLPELGSKSNVSKLLNAVEGKKLTRQHIEALSKRFAVSPALF”, the figure is -0.148; as for “HMLEPGQKVKSVVVDISGDLIYIDLGGKTEGVVELKEFYDEAGEYHVKPGDEIEVFFVSVQNGLKRFTT”, -0.0603; as for “HMLEQISDPEVLSKLADEVLSQQEKMVMDYRKGKTAAFQGLMGQMMKKTKGKGNPAKIQEILAQKL”, 0.401.
With “HMLEQLTPRELKVLQALAQGRQNKEIAAQLVISERTVKFHVSAILSKLNVGNRTEAVTVAAQRGLISL”, the “soluble fraction (log2)” value was -1.6.
To “HMLEQSYYEKTDEIIELHGAKASSLIPVMQDVQAEYRYLPGELLSYIADKLGIPLAKAYSVATFYENFS” belongs -0.282; to “HMLERKFGTSLEIKSLSKFLIENNYKKNAKYLNKLIQVLGTRSENRIIKTFFKQFPEIENIFRNQL”, -0.612.
To “HMLETADDAKRFLGAIISEKKAENLLRVYPDIIERIVAGKPVDLSLVKGIKQKTFDKLRQKVISHYSMY” belongs -0.0346; to “HMLETHRRRQIILSLLRESGMLDVDEVAARLVVSPNTIRNDFNALAAEGLLRRIRGGATLAEP”, -1.45.
